Here are results for 1 molecule from US20110126299A1 (published 2011).

For the assay, the target named is Id(λ2^315)-peptide (amino acids 91 to 101) presented on I-E^d (mouse, UniProt P01904 26-216; P01915 32-225). The experiment in a line: cell-based or functional assay.
Id(λ2^315)-peptide (amino acids 91 to 101) presented on I-E^d, sequence (P01904 26-216, chain 1 of 2): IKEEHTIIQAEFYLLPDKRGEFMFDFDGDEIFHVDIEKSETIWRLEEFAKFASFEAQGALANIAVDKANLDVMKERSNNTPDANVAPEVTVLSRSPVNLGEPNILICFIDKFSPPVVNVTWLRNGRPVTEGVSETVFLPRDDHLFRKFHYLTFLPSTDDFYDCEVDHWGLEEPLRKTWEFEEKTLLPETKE
Id(λ2^315)-peptide (amino acids 91 to 101) presented on I-E^d, sequence (P01915 32-225, chain 2 of 2): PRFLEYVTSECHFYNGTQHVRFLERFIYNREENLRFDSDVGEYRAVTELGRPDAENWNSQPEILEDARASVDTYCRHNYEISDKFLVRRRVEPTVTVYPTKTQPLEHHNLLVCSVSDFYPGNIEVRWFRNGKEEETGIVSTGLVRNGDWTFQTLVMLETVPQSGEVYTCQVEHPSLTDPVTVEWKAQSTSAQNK

B1: Id-specific αβ TCR specific for the Id(λ2^315)-peptide (amino acids 91 to 101) presented on I-E^d (TCR, V domains shown)
V domain 1: QQKVQQSPESLIVPEGAMTSLNCTFSDSASQYFAWYRQQSGKAPKALMSIFSNGEKEEGRFTIHLNKASLHFSLHIRDSQPSDSALYLCAVRGPNTGNYKYVFGAGTRLKVIA
V domain 2: EAAVTQSPRNKVAVTGGKVTLSCNQTNNHNNMYWYRQDTGHGLRLIHYSYGAGSTEKGDIPDGYKASRPSQENFSLILELATPSQTSVYFCASGDAGQGHSDYTFGSGTRLLVI
With B1, the “light emissions (NF-κB-luciferase bioluminescence in vivo, 24 hours after transfer of Id^+ splenocytes into RAG2^-/^- mice carrying Id-specific Luc^+ T cells)” value came out at 4 fold.
